{"source": "patent EP1591456A1", "about": "(Genentech Inc., dated 2005)", "binders": {"B1": {"name": "LU30 scFv fragment (scFv, V domains shown)", "VH": "QVKLQESGGGLVQPGGSLKLSCAASGFTFSGYGMSWIRQTPDKRLEWVATINSGGSYTYYSDSVKGRFTISRDNVKNTLYLQMSSLKSEDTAMYYCARRNGTLYYYLMDYWGRGTLVTVSS", "VL": "QSVLTQPPSASGSPGQSVTISCTGTSSDVGGYNYVSWYQQHPGKAPKFMIYDVSKRPSGVSNRFSGSKSGNTASLTISGVQAEDEADYYCSSYTSASTVIFGGGTKLTVL", "notes": "Human scFv from a naive phage library (Vaughan et al.), secreted from E. coli and purified by its His tag; The full scFv is said to be under GenBank AF117206; also called clone LU30"}}, "molecular_target": "T1, recombinant human DAF (human, UniProt P08174 35-353, limits assumed)", "T1 construct": "also called recombinant human decay accelerating factor; CD55", "T1 sequence (looked up)": "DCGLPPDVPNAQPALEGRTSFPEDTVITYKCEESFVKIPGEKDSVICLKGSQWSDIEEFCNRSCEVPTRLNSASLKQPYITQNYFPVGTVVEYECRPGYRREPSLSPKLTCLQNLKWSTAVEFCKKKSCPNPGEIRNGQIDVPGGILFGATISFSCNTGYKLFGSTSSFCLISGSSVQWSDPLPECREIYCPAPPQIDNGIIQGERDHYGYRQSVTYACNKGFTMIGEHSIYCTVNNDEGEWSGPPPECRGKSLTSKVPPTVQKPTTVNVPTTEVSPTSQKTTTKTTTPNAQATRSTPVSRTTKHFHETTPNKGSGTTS", "test": "SPR (BIACORE 1000), recombinant human DAF on CM-5 chip, LU30 scFv 25-100 nM injected"}
{"binder": "B1", "values": [{"measurement": "Kd", "result": 13, "unit": "nM"}, {"measurement": "koff", "result": 0.0045, "unit": "s⁻¹"}, {"measurement": "kon", "result": 340000, "unit": "M⁻¹ s⁻¹"}]}
